Data as given in PMC6008332, “Nuclear PTEN safeguards pre-mRNA splicing to link Golgi apparatus for its tumor suppressive role” (Nature Communications, 2018).

T1: GST-tagged SF3B4 on the human proteome microarray (human, UniProt Q15427 1-424)
T1 construct: SF3B4 spotted on the human proteome microarray; also called SF3B4 (HPM); source: bought: human proteome microarray (ProtoArray Human Protein Microarray, Wayen Biotechnologies); not shown: GST, N-terminal, kept
T1 sequence (looked up): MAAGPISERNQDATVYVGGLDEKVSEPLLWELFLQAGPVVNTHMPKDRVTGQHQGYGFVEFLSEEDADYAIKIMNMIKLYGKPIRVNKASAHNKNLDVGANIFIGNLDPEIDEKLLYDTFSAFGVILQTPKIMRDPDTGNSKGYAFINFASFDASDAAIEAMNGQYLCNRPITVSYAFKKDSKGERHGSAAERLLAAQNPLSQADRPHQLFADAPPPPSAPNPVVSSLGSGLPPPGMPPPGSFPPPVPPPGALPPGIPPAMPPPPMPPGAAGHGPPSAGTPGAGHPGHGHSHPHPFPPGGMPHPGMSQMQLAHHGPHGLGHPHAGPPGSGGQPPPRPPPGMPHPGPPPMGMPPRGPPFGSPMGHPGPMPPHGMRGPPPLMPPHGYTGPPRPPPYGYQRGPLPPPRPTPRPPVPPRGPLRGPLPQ


What was measured:
Details in all cases: both partners purified
His-tagged U2AF2 = biological target: T2, His-tagged U2AF2 (UniProt P26368 1-475); test: pull-down; 15 μg His-tagged U2AF2 mixed with 4 μg GST or GST-PTEN bound to glutathione-sepharose beads in 0.5 ml binding buffer, overnight at 4 °C; immunoblot for His and GST
T2 construct: Recombinant full-length U2AF2; also called His-U2AF2; source: E. coli (pET-28a), purified (nickel chelating, ion exchange, gel filtration)

[1] = biological target: T1, GST-tagged SF3B4 on the human proteome …; test: peptide or protein array; human proteome microarray of 20,240 N-terminally GST-tagged proteins probed with 5 μg/5 ml Biotin-labeled His-PTEN, 1 h room temperature; Cy5-conjugated streptavidin; cutoff SNR ≥3 and fold change ≥5
[2] = biological target: T3, GST-tagged HNRNPU on the human proteome microarray (human, UniProt Q00839 1-825); test: as above
T3 construct: HNRNPU spotted on the human proteome microarray; also called HNRNPU (HPM); source: bought: human proteome microarray (ProtoArray Human Protein Microarray, Wayen Biotechnologies); not shown: GST, N-terminal, kept

[3] = biological target: T4, GST-tagged APC3 (CDC27) on the human proteome microarray (human, UniProt P30260 1-824); test: as above
T4 construct: APC3 (CDC27) spotted on the human proteome microarray; source: bought: human proteome microarray (ProtoArray Human Protein Microarray, Wayen Biotechnologies); not shown: GST, N-terminal, kept

[4] = biological target: T5, GST-tagged U2AF2 on the human proteome microarray (human, UniProt P26368 1-475); test: as above
T5 construct: U2AF2 spotted on the human proteome microarray; also called U2AF2 (HPM); source: bought: human proteome microarray (ProtoArray Human Protein Microarray, Wayen Biotechnologies); not shown: GST, N-terminal, kept

[5] = biological target: T6, GST-tagged HNRNPK on the human proteome microarray (human, UniProt P61978 1-463); test: as above
T6 construct: HNRNPK spotted on the human proteome microarray; also called HNRNPK (HPM); source: bought: human proteome microarray (ProtoArray Human Protein Microarray, Wayen Biotechnologies); not shown: GST, N-terminal, kept

[6] = biological target: T7, GST-tagged USP7 (HAUSP7) on the human proteome microarray (human, UniProt Q93009 1-1102); test: as above
T7 construct: USP7 spotted on the human proteome microarray; source: bought: human proteome microarray (ProtoArray Human Protein Microarray, Wayen Biotechnologies); not shown: GST, N-terminal, kept

| binding result (His-tagged U2AF2) | binding result [1] | binding result [2] | binding result [3] | binding result [4] | binding result [5] | binding result [6] | Binder |
| --- | --- | --- | --- | --- | --- | --- | --- |
| binds | – | – | – | – | – | – | GST-tagged PTEN (natural protein, PTEN CDS inserted into the pEGX-4T-3 vector (so in the source); also called GST-PTEN) not shown |
| – | binds | binds | binds | binds | binds | binds | Biotin-labeled His-PTEN (natural protein, biotin (sites not given), Recombinant full-length PTEN; also called biotinylated PTEN protein; PTEN−biotin conjugates; source: E. coli (pET-28a), purified (nickel chelating, ion exchange, gel filtration), labeled with biotin) not shown |
